Data: publication PMC2592539
Square brackets hold non-standard residues; d marks the D form. Side chains are listed from the residue outwards. Ends that are not written are not given here. * marks the point of attachment. Biotin = O=C1N[C@H]2[C@H](CS[C@H]2CCCCC(=O)*)N1; Bpa = N[C@@H](Cc1ccc(C(=O)c2ccccc2)cc1)C(=O)O; PEG linker = not defined here

Experiments:
[1] = target: HLA-A0201 MHC class I molecule on T2 cells (human (endogenous in T2) | human); assay: flow cytometry on cells; T2 cells treated with 1 uM biotinylated peptide for 16 hours, no UV; peptide on the cell surface stained with anti-biotin AlexaFluor 488 antibody
[2] = target: HLA-A0201 MHC class I molecule on T2 cells (human (endogenous in T2) | human); assay: flow cytometry on cells; T2 cells treated with 1 uM biotinylated peptide for 16 hours, then exposed to UV light; peptide on the cell surface stained with anti-biotin AlexaFluor 488 antibody
[3] = target: HLA-A0201 MHC class I molecule on T2 cells (human (endogenous in T2) | human); assay: flow cytometry on cells; internalization study: T2 cells with 1 uM biotinylated peptide at 37 degrees, peptide left on; surface peptide by anti-biotin staining at 2, 6 and 24 h
[4] = target: HLA-A0201 MHC class I molecule on T2 cells (human (endogenous in T2) | human); assay: flow cytometry on cells; internalization study (pulse-chase): T2 cells with 1 uM biotinylated peptide for 2 hr at 37 degrees, washed twice, incubated a further 4 or 22 hours; surface peptide by anti-biotin staining

Binder: [Bpa]LGEQ([PEG linker-Biotin])QYSV (reading uncertain) [WT1B-S1Fbz-bio]
- mean fluorescence (anti-biotin) [1]: 41.5
- mean fluorescence (anti-biotin) [2]: 43.2
- mean fluorescence (anti-biotin) at 2 h [3]: 8.74
- mean fluorescence (anti-biotin) at 6 h [3]: 44.4
- mean fluorescence (anti-biotin) at 24 h [3]: 23.4
- mean fluorescence (anti-biotin) at 6 h, washed after 2 h [4]: 6.69
